Positions of bridges follow the written chain, without caps; N, C: chain ends. Non-standard residues stand in square brackets, D forms with d. Residues, ends and D or L forms follow the SMILES beside them. No end group written: not given here. *: point of attachment. Hydrocinnamoyl = O=C(CCc1ccccc1)*; Pyrazinecarbonyl = O=C(c1cnccn1)*; dNMeR = CN[C@H](CCCNC(=N)N)C(=O)O
Tests used:
[1] = Pharmacokinetic studies of THR-123 and GPR-294 i.v. and s.c. (FIG. 13, FIGS. 5-8); type: in vivo
Method: A stock solution of THR-123 was prepared at 250 μg/mL in DMSO. This solution was quantitatively added to blank mouse plasma to generate a calibration curve. The linear range was from 0.25 to 250 ng/mL. A 175 μL aliquot of plasma from removed from each calibrant tube and processed using solid phase extraction (SPE). Study samples were first diluted with blank control mouse plasma, and 175 μL was aliquoted for processing using SPE. An internal standard working solution (ISWS) was added to each calibrant and study sample (GPR-227 at 100 ng/mL in water). Plasma proteins were precipitated with 175 μL of methanol with 0.5% acetic acid (v/v). After centrifugation at 14,800 RPM for 10 minutes, a 300 μL aliquot of supernatant was diluted in water with 4% phosphoric acid (v/v). The entire diluted sample was extracted by SPE using a Waters Oasis HLB 96-well μElution plate. Samples were washed twice using a solution of acidified water (0.1% TFA, v/v) and 15% MeOH in water (v/v). Purified extracts were eluted into a 96-well collection plate using 40 μL of elution solvent. Standards and study samples were injected onto a Thermo Q-exactive LC-MS/MS system. Chromatographic separation was performed using a reversed-phase C18 HPLC column (Waters CSH C18, 50×2.1 mm, 2.5 μm). Analyte and internal standard were detected using the targeted selected ion monitoring (tSIM) scan mode. Calibration curves were generated by using a weighted (1/concentration^2) linear regression of the peak area ratios (analyte/internal standard) versus the nominal concentration of the calibration standards. The concentration of the analyte in the study samples was determined by back-calculating the peak area ratios obtained using the linear regression and applying the appropriate dilution factors.
The study described herein involved single (mouse) or multiple (rat) blood collections after test article administration. Test articles are given by oral (PO), intravenous (IV), subcutaneous (SC) or intraperitoneal (IP) routes. All animals have a five day acclimatization period before dosing. Body weights are recorded prior to dosing. […]

Ex-vivo plasma stability = type: in vitro ADME, mouse or rat
Method: Test article is added to fresh mouse or rat plasma at a final in-vial concentration of 1 μM. The peptide is incubated in a water bath at 37° C. over a time course that included the following points (in minutes): 0, 15, 30, 60, 120, 240, and 1440. After the incubation time is completed, a 50 μL aliquot of plasma is removed and proteins are precipitated using a solution containing internal standard (THR-123 at 150 ng/mL) in methanol with 0.5% acetic acid (v/v). The samples are centrifuged at 13,000 RPM for 5 minutes, and a 100 μL aliquot of supernatant is removed and transferred to a 96-well plate containing 200 μL of reconstitution solution (Water/MeOH/Acetic Acid/TFA, 60/40/0.2/0.05, v/v/v/v). A calibration curve and quality control (QC) samples are prepared in parallel in the same manner as the incubation samples. The calibration range for this assay is from 0.02 to 2.0 μM in rat or mouse plasma. The extracted calibrants, QC, and incubation samples are injected onto an AB SCIEX API 2000 LC-MS/MS system. Chromatographic separation is performed using a reversed-phase C18 HPLC column (Ace-3 C18, 30×2.1 mm, 3 μm). The solvent system consists of Milli-Q water, acetonitrile and formic acid. Analyte and internal standard are detected using the multiple reaction monitoring (MRM) scan mode. Calibration curves are generated by using a weighted (1/concentration) quadratic regression analysis of the peak area ratios (analyte/internal standard) versus the nominal concentration of the calibration standards. The concentration of the analyte in the incubation samples is determined by back-calculating the peak area ratios obtained using the quadratic regression.

FIGURE 31 (1/2) = experiment: FIGURE 31 (1/2)
Method: Table printed on a drawing sheet, FIGURE 31 (1/2)
Peptide to internal standard peak area ratios were used calculate percentage remaining peptide at 60 minutes and 120 minutes. Peptides are identified by GPR number (GPR#) and SEQ ID NO.
First reader's note: First of two sheets of FIGURE 31; the table continues on sheet 2/2, and the meaning of the asterisks is not printed on this sheet.

Compound	% Remaining at 60 and 120 minutes | 60 (FIGURE 31 (1/2)) [%]	% Remaining at 60 and 120 minutes | 120 (FIGURE 31 (1/2)) [%]	also measured
CC(C)C[C@@H]1NC(=O)[C@H](C(C)C)NC(=O)[C@H](CC(N)=O)NC(=O)[C@H](CO)NC(=O)[C@H](CO)NC(=O)[C@H](CC(=O)O)NC(=O)[C@H](CC(=O)O)NC(=O)[C@H](Cc2ccccc2)NC(=O)[C@H](Cc2ccc(O)cc2)NC(=O)[C@@H](N)CSSC[C@@H](C(=O)N[C@@H](CCCCN)C(=O)N[C@@H](CCCCN)C(=O)N[C@H](Cc2ccc(O)cc2)C(=O)N[C@@H](CCCNC(=N)N)C(=O)N[C@@H](CO)C(=O)O)NC1=O [GPR-294, Cys-Tyr-Phe-Asp-Asp-Ser-Ser-Asn-Val-Leu-Cys-Lys-Lys-D-tyr-Arg-Ser] (H-CYFDDSSNVLCKK[dY]RS-OH; disulfide 1-11)	–	–	plasma half-life compared with THR-123 ([1]; by either route of administration (i.v., s.c.)): much longer plasma half-life than the non-stabilized THR-123; bioavailability ([1]; in vivo, s.c. versus i.v., FIG. 13, read-out: bioavailable by sub-cutaneous administration): 100%; remaining at 1 h (Ex-vivo plasma stability; fresh plasma 37° C., 1 μM, 60 min, read-out: Percent remaining 60 min): 72.6%; remaining at 2 h (Ex-vivo plasma stability; fresh plasma 37° C., 1 μM, 120 min, read-out: Percent remaining 120 min): 67.9%; stability toward plasma proteolytic cleavage (Ex-vivo plasma stability; versus THR-123, rat plasma (FIGS. 3 and 4)): enhanced
CC(C)C[C@@H]1NC(=O)[C@H](C(C)C)NC(=O)[C@H](CC(N)=O)NC(=O)[C@H](CO)NC(=O)[C@H](CO)NC(=O)[C@H](CC(=O)O)NC(=O)[C@H](CC(=O)O)NC(=O)[C@H](Cc2ccccc2)NC(=O)[C@H](Cc2ccc(O)cc2)NC(=O)[C@@H](NC(=O)CCc2ccccc2)CSSC[C@@H](C(=O)N[C@@H](CCCCN)C(=O)N[C@@H](CCCCN)C(=O)N[C@@H](Cc2ccc(O)cc2)C(=O)N[C@@H](CCCNC(=N)N)C(=O)N[C@@H](CO)C(=O)O)NC1=O [SEQ ID NO:31, [N-terminal: Phenyl-CH2-CH2-CO-]Cys-Tyr-Phe-Asp-Asp-Ser-Ser-Asn-Val-Leu-Cys-Lys-Lys-Tyr-Arg-Ser] (Hydrocinnamoyl-CYFDDSSNVLCKKYRS-OH; disulfide 1-11)	26.6	11.8	–
CC(C)C[C@@H]1NC(=O)[C@H](C(C)C)NC(=O)[C@H](CC(N)=O)NC(=O)[C@H](CO)NC(=O)[C@H](CO)NC(=O)[C@H](CC(=O)O)NC(=O)[C@H](CC(=O)O)NC(=O)[C@H](Cc2ccccc2)NC(=O)[C@H](Cc2ccc(O)cc2)NC(=O)[C@@H](NC(=O)CCc2ccccc2)CSSC[C@@H](C(=O)N[C@@H](CCCCN)C(=O)N[C@@H](CCCCN)C(=O)N[C@H](Cc2ccc(O)cc2)C(=O)N[C@@H](CCCNC(=N)N)C(=O)N[C@@H](CO)C(=O)O)NC1=O [SEQ ID NO:32, [N-terminal: Phenyl-CH2-CH2-CO-]Cys-Tyr-Phe-Asp-Asp-Ser-Ser-Asn-Val-Leu-Cys-Lys-Lys-(D)Tyr-Arg-Ser] (Hydrocinnamoyl-CYFDDSSNVLCKK[dY]RS-OH; disulfide 1-11)	82.0	91.0	–
CYFDDSSNVKCKK[dA]RS (cysteine pairing not given here) [SEQ ID NO:28]	75.3	90.2	–
Cys-Tyr-Phe-Asp-Asp-Asn-Ser-Asn-Val-Leu-Cys-Arg-Lys-Tyr-(Me)(D)Arg-Ser (CYFDDNSNVLCRKY[dNMeR]S-OH; disulfide 1-11 (inferred)) [SEQ ID NO:38]	90.4	84.2	–
Cys-Tyr-Phe-Asp-Asp-Ser-Ser-Asn-Ala-Leu-Cys-Lys-Lys-Tyr-(Me)(D)Arg-Ser (CYFDDSSNALCKKY[dNMeR]S-OH; disulfide 1-11 (inferred)) [SEQ ID NO:42]	100.0	94.0	–
Cys-Tyr-Phe-Asp-Asp-Ser-Ser-Asn-Thr-Leu-Cys-Lys-Lys-Tyr-(Me)(D)Arg-Ser (CYFDDSSNTLCKKY[dNMeR]S-OH; disulfide 1-11 (inferred)) [SEQ ID NO:40]	106.0	99.2	–
Cys-Tyr-Phe-Nal-Asp-Ser-Ser-Asn-Val-Leu-Cys-Lys-Lys-(D)Tyr-Arg-Ser (CYF[Nal]DSSNVLCKK[dY]RS-OH; disulfide 1-11 (inferred)) [SEQ ID NO:48]	93.33	97.49	–
Cys-Tyr-Phe-Nal-Asp-Ser-Ser-Asn-Val-Leu-Cys-Lys-Lys-Tyr-Arg-Ser (CYF[Nal]DSSNVLCKKYRS-OH; disulfide 1-11 (inferred)) [SEQ ID NO:47]	9.0	8.2	–
Cys-Tyr-Tyr-Phe-Ser-Ser-Ser-Phe-Val-Leu-Cys-Lys-Arg-Tyr-(Me)(D)Arg-Ser (CYYFSSSFVLCKRY[dNMeR]S-OH; disulfide 1-11 (inferred)) [SEQ ID NO:44]	74.3	57.5	–
[N-terminal: Pirazinyl-CO-]Cys-Tyr-Phe-Asp-Asp-Ser-Ser-Asn-Val-Leu-Cys-Lys-Lys-(D)Tyr-Arg-Ser (Pyrazinecarbonyl-CYFDDSSNVLCKK[dY]RS-OH; disulfide 1-11 (inferred)) [SEQ ID NO:34]	66.2	78.7	–
[N-terminal: Pirazinyl-CO-]Cys-Tyr-Phe-Asp-Asp-Ser-Ser-Asn-Val-Leu-Cys-Lys-Lys-Tyr-Arg-Ser (Pyrazinecarbonyl-CYFDDSSNVLCKKYRS-OH; disulfide 1-11 (inferred)) [SEQ ID NO:33]	44.3	23.6	–

Reference: patent US20160137714A1 (Thrasos Innovation, Inc., priority 2014, published 2016)
